# Source: paper PMC2597643 (Nature, 2008)
# Several values for one entry are separate records, joined by “and”; a condition that tells them apart may be missing. Equal entries are not always repeated.
# Tests used:
# Orai (in HEK-293 cells) = Orai (in HEK-293 cells) (UniProt Q9U6B8); assay: native gel or EMSA
# cross-linking = biological target: the molecule itself; assay: cross-linking
# [1] = biological target: the molecule itself; assay: single-molecule photobleaching
molecule,measurement,setting,value
Orai (in HEK-293 cells) (from UniProt Q9U6B8 1-351) (natural protein),stoichiometry N,Orai (in HEK-293 cells),2
HA-tagged Orai (natural protein) MSVWTTANNSGLETPTKSPITSSVPRAARSSAVITTGNHQQHHFQHVVAAAVAAATSVATGHQFQQQFPLHAHPHPQHHSNSPTGSGSNSNNSAGFQRTSISNSLLQFPPPPPPSSQNQAKPRGHHRTASSSMSQSGEDLHSPTYLSWRKLQLSRAKLKASSKTSALLSGFAMVAMVEVQLDHDTNVPPGMLIAFAICTTLLVAVHMLALMISTCILPNIETVCNLHSISLVHESPHERLHWYIETAWAFSTLLGLILFLLEIAILCWVKFYDLSPPAAWSACVVLIPVMIIFMAFAIHFYRSLVSHKYEVTVSGIRELEMLKEQMEQDHLEHHNNIRNNGMNYGASGDIV,stoichiometry N,cross-linking,2
GFP-Flag-Orai (in Xenopus oocytes) (natural protein) MSVWTTANNSGLETPTKSPITSSVPRAARSSAVITTGNHQQHHFQHVVAAAVAAATSVATGHQFQQQFPLHAHPHPQHHSNSPTGSGSNSNNSAGFQRTSISNSLLQFPPPPPPSSQNQAKPRGHHRTASSSMSQSGEDLHSPTYLSWRKLQLSRAKLKASSKTSALLSGFAMVAMVEVQLDHDTNVPPGMLIAFAICTTLLVAVHMLALMISTCILPNIETVCNLHSISLVHESPHERLHWYIETAWAFSTLLGLILFLLEIAILCWVKFYDLSPPAAWSACVVLIPVMIIFMAFAIHFYRSLVSHKYEVTVSGIRELEMLKEQMEQDHLEHHNNIRNNGMNYGASGDIV,stoichiometry N,[1],2 and 4
